Measurements published in patent publication US20250289893A1 (OXFORD UNIVERSITY INNOVATION, published 2025).

B1: 110 (VR12112) (antibody, V domains shown)
VH: QSVEESGGRLVTPGTPLTLTCTVSGFSLSSYAMIWVRQAPGKGLEWIGIINSSDNTHYATWAKGRFTISKTSTTVDLKITSPTTEDTATYFCARDPYDYGYGWYFDLWGPGTLVTVSS
VL: AQVLTQTPSPVSAAVGGTVTINCQASQSVFNNKNLAWYQQKPGQPPKLLIYKASTLASGVSSRFKGSGSGTQFALTISGVQCDDAATYYCQGEFSCSSTDCVTFGGGTEVVVK
notes: also called OX110; antibody 110
B2: 77A (VR11851) (antibody, V domains shown)
VH: QSVEESGGRLVTPGTPLTLTCTVSGFSLSSYAMSWVRQAPGKGLEWIGIISSSGTTYYASWAKGRFTISKTSTTVDLKITSPTTEDTATYFCARVDYYSSGWGGLWGPGTLVTVSS
VL: AVEMTQTPASMSAAVGGTVTIKCQASEDIYSNLAWYQQKPGQPPKLLIYGASTLASGVPSRFKGSGSGTEYTLTISGVQCDDAATYYCQCTYDTSSYGNTFGGGTEMVVE
notes: also called OX77a; antibody 77a
B3: 111 (VR12113) (antibody, V domains shown)
VH: QSVEESGGRLVTPGTPLTLTCTASGFSLSTYAMSWVRQAPGKGLEWIGIISSSGSTYYASWAKGRFTISKTSTTVDLKITSPTTEDTATYFCARETWYWLDLWGQGTLVTVSS
VL: AVEMTQTPASVSAAVGGTVTINCQASEDIYSNLAWYQQKPGQPPKLLIYGASTLASGVPSRFKGSGSGTEYTLTISGVQCDDAATYYCQCAYDSSSYGTPFGGGTEVVVK
notes: also called OX111

Tests used:
[1] = target: T1, human CD1d expressed on HEK-293 cells (human, UniProt P15813 20-335; P61769 21-119); assay: flow cytometry, HEK-293 cells, 100 µg/ml antibody
T1 construct: also called HEK - CD1d
Protocol: (§1) Binding to proteins expressed on HEK, C1R and MOLT4 cell lines was assessed. […] The C1R-CD1a, C1R-empty vector and MOLT4 cell lines were washed in 1×PBS on the day required. All cell lines were counted and resuspended in 1×PBS and then stained for 30 minutes at 37° C. using the DiI or DiO cellular stains (Invitrogen). Cells were washed with flow cytometry buffer (1% bovine serum albumin, 2 mM EDTA and 0.1% sodium azide in PBS) before mixing 2 DiI-stained and DiO-stained populations together. The cells (20 μl/well) were then added to dilutions of antibody sample (B cell culture supernatant, TAP supernatant, clone supernatant, purified antibody solution) (20 μl/well) and incubated for 1 hour at 4° C. in a flow cytometry assay plate, before being washed with flow cytometry buffer. 10 μl/well of Alexafluor647-conjugated goat anti-species IgG Fc-specific F(ab′)2 fragment (Jackson ImmunoResearch), diluted 1:2500 in flow cytometry buffer, was added and incubated at 4° C. for 30 minutes, followed by washing with wash buffer. The fluorescence intensity was then measured on an iQue screener PLUS.
(§2) HEK-293 cells were transiently transfected with human CD1a, CD1b, CD1c or CD1d and co-transfected with human β2M.

[2] = target: T2, human CD1c expressed on HEK-293 cells (human, UniProt P29017 18-333; P61769 21-119); assay: flow cytometry, HEK-293 cells, 100 µg/ml antibody
T2 construct: also called HEK - CD1c
Protocol: as §1, §2

[3] = target: T3, human CD1a expressed on cells (human, UniProt P06126 17-327; P61769 21-119); assay: flow cytometry, HEK-293 cells, 100 µg/ml antibody
T3 construct: also called HEK - CD1a; C1R - CD1a
Protocol: as §1, §2

[4] = target: T3, human CD1a expressed on cells; assay: flow cytometry, C1R cells, 31.6 µg/ml antibody
Protocol: as §1
(§3) Binding was quantified as fold change in fluorescence intensity geomean over background assessed by flow cytometry.

[5] = target: T4, Cynomolgus monkey CD1a expressed on HEK-293 cells (Cynomolgus monkey, UniProt A0A2K5VQ68 17-326); assay: flow cytometry, HEK-293 cells, 0.1 µg/ml antibody
Protocol: as §1, §3

[6] = target: T5, Cynomolgus monkey CD1a protein (Cynomolgus monkey); assay: ELISA, 1 µg/ml antibody
T5 chain: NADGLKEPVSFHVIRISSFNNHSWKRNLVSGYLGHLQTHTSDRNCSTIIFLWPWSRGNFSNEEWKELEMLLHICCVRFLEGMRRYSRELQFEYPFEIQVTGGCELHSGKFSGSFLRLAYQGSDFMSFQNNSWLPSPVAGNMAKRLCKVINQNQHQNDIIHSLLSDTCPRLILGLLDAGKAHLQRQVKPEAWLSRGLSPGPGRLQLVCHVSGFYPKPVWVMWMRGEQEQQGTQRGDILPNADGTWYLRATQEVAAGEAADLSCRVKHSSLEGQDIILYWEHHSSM

[7] = target: T1, human CD1d expressed on HEK-293 cells; assay: flow cytometry, HEK-293 cells
Protocol: as §1, §2

[8] = target: T2, human CD1c expressed on HEK-293 cells; assay: flow cytometry, HEK-293 cells
Protocol: as §1, §2

[9] = target: T6, human CD1b expressed on HEK-293 cells (human, UniProt P29016 18-333; P61769 21-119); assay: flow cytometry, HEK-293 cells
T6 construct: also called HEK - CD1b
Protocol: as §1, §2

[10] = target: T7, human CD1a protein (pool B) (human, UniProt P06126 18-295, limits assumed); assay: ELISA, 0.316 µg/ml antibody
T7 construct: Recombinant protein of the ELISA (coated) and the Biacore T200 titration; whole entry named; also called human CD1a pool B; full length CD1a
Protocol: (§4) CD1a-specific antibodies were identified by ELISA. […] 20 μl/well of peroxidase-conjugated goat anti-species IgG Fc-specific F(ab′)2 fragment (Jackson ImmunoResearch), diluted 1:5000 in block buffer was added and incubated at room temperature for 1 hour, followed by washing with wash buffer.
(§5) The antibodies were titrated through a dilution series and compared to a control rabbit IgG antibody.

[11] = target: T3, human CD1a expressed on cells; assay: flow cytometry, C1R cells, 10 µg/ml antibody
Protocol: as §1, §3

[12] = target: T3, human CD1a expressed on cells; assay: flow cytometry, MOLT4 cells, 0.316 µg/ml antibody
Protocol: (§6) CD1a-specific antibodies were identified by flow cytometry. Binding to proteins expressed on HEK, C1R and MOLT4 cell lines was assessed. […] The C1R-CD1a, C1R-empty vector and MOLT4 cell lines were washed in 1×PBS on the day required. All cell lines were counted and resuspended in 1×PBS and then stained for 30 minutes at 37° C. using the DiI or DiO cellular stains (Invitrogen). Cells were washed with flow cytometry buffer (1% bovine serum albumin, 2 mM EDTA and 0.1% sodium azide in PBS) before mixing 2 DiI-stained and DiO-stained populations together. The cells (20 μl/well) were then added to dilutions of antibody sample (B cell culture supernatant, TAP supernatant, clone supernatant, purified antibody solution) (20 μl/well) and incubated for 1 hour at 4° C. in a flow cytometry assay plate, before being washed with flow cytometry buffer. 10 μl/well of Alexafluor647-conjugated goat anti-species IgG Fc-specific F(ab′)2 fragment (Jackson ImmunoResearch), diluted 1:2500 in flow cytometry buffer, was added and incubated at 4° C. for 30 minutes, followed by washing with wash buffer. The fluorescence intensity was then measured on an iQue screener PLUS.
as §3

[13] = target: T5, Cynomolgus monkey CD1a protein; assay: ELISA, 10 µg/ml antibody
[14] = target: T1, human CD1d expressed on HEK-293 cells; assay: flow cytometry, HEK-293 cells, 3.16 µg/ml antibody
Protocol: as §1, §2

[15] = target: T2, human CD1c expressed on HEK-293 cells; assay: flow cytometry, HEK-293 cells, 3.16 µg/ml antibody
Protocol: as §1, §2

[16] = target: T3, human CD1a expressed on cells; assay: flow cytometry, HEK-293 cells, 3.16 µg/ml antibody
Protocol: as §1, §2

[17] = target: T6, human CD1b expressed on HEK-293 cells; assay: flow cytometry, HEK-293 cells, 3.16 µg/ml antibody
Protocol: as §1, §2

[18] = target: T4, Cynomolgus monkey CD1a expressed on …; assay: flow cytometry, HEK-293 cells, 0.01 µg/ml antibody
Protocol: as §1, §3

[19] = target: T8, chimeric CD1a pool B protein [human CD1a lipid binding domain, mouse CD1d Ig domain] (human; mouse, UniProt P06126 18-201; P11609 205-297, limits assumed); assay: ELISA, 0.0316 µg/ml antibody
Protocol: as §4
(§7) The antibodies were titrated through a dilution series and compared to a control rabbit IgG antibody. […] Data shown for purified antibodies.

[20] = target: T3, human CD1a expressed on cells; assay: flow cytometry, C1R cells, 1 µg/ml antibody
Protocol: as §1, §3

[21] = target: T3, human CD1a expressed on cells; assay: flow cytometry, MOLT4 cells, 100 µg/ml antibody
Protocol: as §6, §3

[22] = target: T3, human CD1a expressed on cells; assay: flow cytometry, C1R cells, 3.16 µg/ml antibody
Protocol: as §1, §3

[23] = target: T8, chimeric CD1a pool B protein [human …; assay: ELISA, 0.316 µg/ml antibody
Protocol: as §4, §7

[24] = target: Chinese variant CD1a protein (human) (UniProt P06126); assay: ELISA, 0.01 µg/ml antibody
[25] = target: T4, Cynomolgus monkey CD1a expressed on …; assay: flow cytometry, HEK-293 cells, 1 µg/ml antibody
Protocol: as §1, §3

[26] = target: T7, human CD1a protein (pool B); assay: ELISA, 0.1 µg/ml antibody
Protocol: as §4, §5

Sequence of Chinese variant CD1a protein (human) (P06126 18-295, change not shown): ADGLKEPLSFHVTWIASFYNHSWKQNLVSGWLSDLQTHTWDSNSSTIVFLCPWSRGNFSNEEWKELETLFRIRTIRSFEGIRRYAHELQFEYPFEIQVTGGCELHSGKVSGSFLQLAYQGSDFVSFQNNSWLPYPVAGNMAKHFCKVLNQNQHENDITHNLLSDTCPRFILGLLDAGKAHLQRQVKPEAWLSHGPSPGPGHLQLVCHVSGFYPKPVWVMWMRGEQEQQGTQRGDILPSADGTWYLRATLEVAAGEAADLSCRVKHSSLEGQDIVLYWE
T7 sequence (P06126 18-295 limits assumed): as the sequence (P06126 18-295, change not shown) above
T8 sequence (P06126 other isoform, or with tags, fused parts or gaps mutant limits assumed): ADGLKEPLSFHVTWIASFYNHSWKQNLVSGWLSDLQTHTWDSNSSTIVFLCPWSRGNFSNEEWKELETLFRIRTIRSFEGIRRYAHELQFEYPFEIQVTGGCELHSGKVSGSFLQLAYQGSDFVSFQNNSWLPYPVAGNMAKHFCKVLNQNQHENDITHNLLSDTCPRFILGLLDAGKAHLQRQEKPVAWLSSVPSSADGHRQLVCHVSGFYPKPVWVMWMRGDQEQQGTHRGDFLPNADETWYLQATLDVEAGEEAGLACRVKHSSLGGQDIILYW
T4 sequence (A0A2K5VQ68 entry or part of it): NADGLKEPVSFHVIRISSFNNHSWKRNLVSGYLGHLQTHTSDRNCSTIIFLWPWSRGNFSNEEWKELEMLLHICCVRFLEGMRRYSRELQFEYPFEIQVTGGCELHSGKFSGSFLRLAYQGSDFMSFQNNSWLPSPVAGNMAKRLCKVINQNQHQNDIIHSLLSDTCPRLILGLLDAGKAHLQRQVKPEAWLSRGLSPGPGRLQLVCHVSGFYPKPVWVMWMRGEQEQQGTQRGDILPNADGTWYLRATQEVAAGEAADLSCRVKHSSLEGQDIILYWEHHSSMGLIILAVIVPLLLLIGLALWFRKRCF

Binder	Fluorescence Intensity Geomean (normalized to background) [1] [fold over background]	Fluorescence Intensity Geomean (normalized to background) [2] [fold over background]	Fluorescence Intensity Geomean (normalized to background) [3] [fold over background]	Fluorescence Intensity Geomean (normalized to background) [4] [fold over background]	Fluorescence Intensity Geomean (normalized to background) [5] [fold over background]	Optical Density (OD) [6] [OD]	binding result [7]	binding result [8]	binding result [9]	Optical Density (OD) [10] [OD]	Fluorescence Intensity Geomean (normalized to background) [11] [fold over background]	Fluorescence Intensity Geomean (normalized to background) [12] [fold over background]	Optical Density (OD) [13] [OD]	Fluorescence Intensity Geomean (normalized to background) [14] [fold over background]	Fluorescence Intensity Geomean (normalized to background) [15] [fold over background]	Fluorescence Intensity Geomean (normalized to background) [16] [fold over background]	Fluorescence Intensity Geomean (normalized to background) [17] [fold over background]	Fluorescence Intensity Geomean (normalized to background) [18] [fold over background]	Optical Density (OD) [19] [OD]	Fluorescence Intensity Geomean (normalized to background) [20] [fold over background]	further results
B1	1.1	1	5.9	6.2	3.3	0.94	no binding (tested: 100 µg/ml (highest tested))	no binding (tested: 100 µg/ml (highest tested))	no binding (tested: 100 µg/ml (highest tested))	1.18	8.3	27.1	0.86	1	1.1	31.5	1.1	1.2	0.73	28.2	Fluorescence Intensity Geomean (normalized to background) [21]: 5.2 fold over background; Fluorescence Intensity Geomean (normalized to background) [22]: 15.2 fold over background; Optical Density (OD) [23]: 1.24 OD; Optical Density (OD) [24]: 1.4 OD
B2	1	0.9	4.1	1.3	5.7	0.43	no binding (tested: 100 µg/ml (highest tested))	no binding (tested: 100 µg/ml (highest tested))	no binding (tested: 100 µg/ml (highest tested))	1.39	2.3	15.2	0.52	0.9	0.9	23.3	0.9	1.7	1.09	10.3	Fluorescence Intensity Geomean (normalized to background) [25]: 10.6 fold over background; Optical Density (OD) [26]: 1.36 OD; Fluorescence Intensity Geomean (normalized to background) [21]: 0.8 fold over background; Fluorescence Intensity Geomean (normalized to background) [22]: 4.2 fold over background; Optical Density (OD) [23]: 1.28 OD; Optical Density (OD) [24]: 0.79 OD
B3	1.1	1.1	4.3	7	25.8	0.69	no binding (tested: 100 µg/ml (highest tested))	no binding (tested: 100 µg/ml (highest tested))	no binding (tested: 100 µg/ml (highest tested))	1.04	11.7	27.3	0.79	1.1	1.1	24.9	1.1	8.9	1.19	28	Fluorescence Intensity Geomean (normalized to background) [25]: 12.9 fold over background; Optical Density (OD) [26]: 1.06 OD; Fluorescence Intensity Geomean (normalized to background) [21]: 3.9 fold over background; Fluorescence Intensity Geomean (normalized to background) [22]: 15.6 fold over background; Optical Density (OD) [23]: 1.32 OD; Optical Density (OD) [24]: 1.33 OD
